Results on two substances are retold here after paper PMC10858199, “Amyloid-β aggregates activate peripheral monocytes in mild cognitive impairment” (Nature Communications, 2024).

As usually defined, the Kd is the free concentration of one partner at which half of the binding sites on the other are occupied at equilibrium, for simple one-to-one binding. The low end stands for a tighter complex, the high end for a looser complex.

Assay [1] has as its target synthetic, predominantly monomeric amyloid-β (M-Aβ) (human) (UniProt P05067). Description: SPR; BIAcore 3000, CM-4 chips; monomeric Aβ, aggregated Aβ (100 fmol Aβ42/mm^2) or iC3b amine-coupled; I domains injected at 20-10000 nM in 150 mM NaCl, 1 mM MgCl2, 5.0 mM HEPES (pH 7.4); contact 180 s, dissociation 400 s; two-dimensional distribution of 1:1 interactions fitted with EVILFIT.

Assay [2] has as its target in vitro-aggregated amyloid-β (A-Aβ) (human) (UniProt P05067). The description is as above.

The substance “CR3 I domain, stabilized in the activated conformation (domain or fragment)” registered a Kd in assay [1] of 79 µM.

In assay [2], “CR4 I domain, stabilized in the activated conformation (from UniProt P20702 20-1101) (domain or fragment)” displayed a KD, high-affinity class of binding sites of 0.016 nM; a koff, high-affinity class of binding sites of 0.00025 s⁻¹; a koff, moderate-affinity class of binding sites of 5e-05 s⁻¹.
